# B1: 抗体1F8 (WO2018075857A1中1F8抗体) (antibody, V domains shown)
# VH: KVQLVESGGGLVKPGGSLRLSCAASGFTFSNAWMNWVRQAPGKGLEWVGRIKRKTDGETTDYAAPVKGRFSISRDDSKNTLYLQMNSLKTEDTAVYYCAGSNRAFDIWGQGTMVTVSA
# VL: DIVMTQSPDSLAVSLGERATINCKSSQSVLYSSNNRNYLAWYQQKPGQPPKLLINQASTRASGVPDRFSGSGSGTEFTLIISSLHAEDVAIYYCQQYYTPPLAFGGGTKLEIK
# Biological target: T1, CD47 on NUGC-4 cells / hCLDN18.2-NUGC-4 cells (human, UniProt Q08722 19-323)
# T1 construct: whole, on cells; also called 内源CD47; 人CD47
# Assay: flow cytometry, blocking of SIRPα-mFc binding to hCLDN18.2-NUGC-4 cells
# T1 sequence (Q08722 19-323): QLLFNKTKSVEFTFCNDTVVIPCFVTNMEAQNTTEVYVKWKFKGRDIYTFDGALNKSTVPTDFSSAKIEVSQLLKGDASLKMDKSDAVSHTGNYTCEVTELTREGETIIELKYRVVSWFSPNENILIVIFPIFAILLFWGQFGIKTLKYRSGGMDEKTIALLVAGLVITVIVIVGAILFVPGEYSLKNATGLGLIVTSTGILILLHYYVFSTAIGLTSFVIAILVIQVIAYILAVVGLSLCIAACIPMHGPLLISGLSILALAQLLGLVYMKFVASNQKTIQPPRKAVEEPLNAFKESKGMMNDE
binder,measurement,value
B1,IC50,1.98 µg/mL

# From CN117180420A (DRAGONBOAT BIOPHARMACEUTICAL SHANGHAI CO LTD, dated 2023)
